For one molecule, IC50 results are on record in PMC3292467, “Comparison between ^68Ga-bombesin (^68Ga-BZH3) and the cRGD tetramer ^68Ga-RGD4 studies in an experimental nude rat model with a neuroendocrine pancreatic tumor cell line” (EJNMMI Research, 2011).

Square brackets hold non-standard residues; d marks the D form.

This experiment concerns the target T1, integrin ανβ3, P06756.
T1 chain 1: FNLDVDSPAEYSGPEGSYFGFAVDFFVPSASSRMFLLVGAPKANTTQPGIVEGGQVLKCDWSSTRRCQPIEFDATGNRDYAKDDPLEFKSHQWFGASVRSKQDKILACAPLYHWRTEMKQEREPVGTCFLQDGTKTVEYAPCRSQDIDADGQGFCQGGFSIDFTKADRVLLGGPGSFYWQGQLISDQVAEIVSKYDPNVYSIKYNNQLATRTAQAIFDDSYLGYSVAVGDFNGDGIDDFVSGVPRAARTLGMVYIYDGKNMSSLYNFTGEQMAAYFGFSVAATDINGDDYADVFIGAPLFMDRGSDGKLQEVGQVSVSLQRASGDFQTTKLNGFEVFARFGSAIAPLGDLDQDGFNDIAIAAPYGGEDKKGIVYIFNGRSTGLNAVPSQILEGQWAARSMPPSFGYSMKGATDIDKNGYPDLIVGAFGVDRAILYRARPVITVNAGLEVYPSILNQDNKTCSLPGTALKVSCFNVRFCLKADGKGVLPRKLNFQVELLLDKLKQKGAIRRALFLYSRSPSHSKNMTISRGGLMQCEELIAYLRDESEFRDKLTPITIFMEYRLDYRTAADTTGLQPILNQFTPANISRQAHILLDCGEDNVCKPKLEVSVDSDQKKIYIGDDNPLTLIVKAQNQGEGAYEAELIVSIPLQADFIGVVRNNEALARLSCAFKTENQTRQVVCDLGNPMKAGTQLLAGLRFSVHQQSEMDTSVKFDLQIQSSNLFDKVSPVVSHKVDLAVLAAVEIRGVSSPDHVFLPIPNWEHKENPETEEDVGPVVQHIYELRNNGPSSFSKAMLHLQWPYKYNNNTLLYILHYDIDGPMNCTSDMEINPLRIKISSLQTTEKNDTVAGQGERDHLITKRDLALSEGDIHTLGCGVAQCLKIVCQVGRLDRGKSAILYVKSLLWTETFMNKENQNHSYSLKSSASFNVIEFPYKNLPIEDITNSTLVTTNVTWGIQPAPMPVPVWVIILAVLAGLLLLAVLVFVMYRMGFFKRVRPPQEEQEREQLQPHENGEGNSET
T1 chain 2: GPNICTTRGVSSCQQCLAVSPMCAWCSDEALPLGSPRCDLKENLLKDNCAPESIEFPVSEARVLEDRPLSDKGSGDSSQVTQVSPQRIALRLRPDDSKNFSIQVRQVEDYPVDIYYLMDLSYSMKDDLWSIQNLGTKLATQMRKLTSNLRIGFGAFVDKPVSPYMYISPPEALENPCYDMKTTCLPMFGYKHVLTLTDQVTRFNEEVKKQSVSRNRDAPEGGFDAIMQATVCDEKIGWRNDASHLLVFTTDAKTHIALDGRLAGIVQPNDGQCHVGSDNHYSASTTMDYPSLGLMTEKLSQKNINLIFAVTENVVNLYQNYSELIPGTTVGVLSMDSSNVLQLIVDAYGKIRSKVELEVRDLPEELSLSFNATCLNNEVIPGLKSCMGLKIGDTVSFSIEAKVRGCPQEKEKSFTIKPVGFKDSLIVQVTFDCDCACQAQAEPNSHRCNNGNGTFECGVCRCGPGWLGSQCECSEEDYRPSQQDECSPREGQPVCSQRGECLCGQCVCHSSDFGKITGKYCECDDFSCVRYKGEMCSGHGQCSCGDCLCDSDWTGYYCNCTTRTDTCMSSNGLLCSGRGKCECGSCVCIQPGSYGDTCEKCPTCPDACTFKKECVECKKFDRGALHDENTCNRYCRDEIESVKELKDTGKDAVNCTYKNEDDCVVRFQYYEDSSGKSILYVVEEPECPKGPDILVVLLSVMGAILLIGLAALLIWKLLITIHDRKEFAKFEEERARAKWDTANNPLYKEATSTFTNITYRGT
The experiment is described as follows: not stated; IC50 of ^68Ga-RGD4 for ανβ3; format, competitor and conditions not told. As to conditions: remark: other sources report otherwise.

On to cyclo(RGD[dF]K) (not fully specified (residue 5); also: tetramer on DOTA-Mal4 core, 68Ga on DOTA) [^68Ga-RGD tetramer (^68Ga-labelled DOTA-comprising RGD tetramer)], for which the IC50 was found to be 4.97 µM.

The IC50 is the concentration that gives 50% inhibition.
